Reference: paper PMC8958347

What was measured:
[1] = biological target: Dil labelled LDL (low-density lipoprotein); test: MST; purified LDLR^Q722* or wild-type LDLR with Dil labelled LDL; Kd model; three replicates
[2] = biological target: Dil labelled LDL (low-density lipoprotein); test: MST; sEV^Ad-LDLR-Q722* with Dil-LDL; Kd model; pH 5.5
[3] = biological target: Dil labelled LDL (low-density lipoprotein); test: MST; sEV^Ad-LDLR-Q722* with Dil-LDL; Kd model; pH 7.4
[4] = biological target: Dil labelled LDL (low-density lipoprotein)
[5] = biological target: Dil labelled LDL (low-density lipoprotein); test: MST; sEV (isolated from supernatant of infected HepG2) with Dil-LDL; Kd model; pH not stated

Row | Kd [1] [µM] | Kd [2] [µM] | Kd [3] [µM] | uptake of Dil-LDL by Ldlr–/– primary hepatocytes (confocal fluorescence intensity), sEV^Ad-LDLR-Q722* group against the sEV^Ad-LDLR-WT group [4] [fold] | uptake of Dil-LDL by Ldlr–/– primary hepatocytes (confocal fluorescence intensity), sEV^Ad-LDLR-Q722* group against the sEV^Ad-control group [4] [fold] | Kd [5] [µM] | Substance
1 | 7.89 | – | – | – | – | – | LDLR^Q722* (truncated soluble LDLR, 1-722 amino acids), purified (from UniProt P01130 22-722) (domain or fragment)
2 | – | 0.013 | 4.98 | 3.13 | 2.68 | 0.012 | LDLR^Q722* attached to the surface of small extracellular vesicles (sEV^Ad-LDLR-Q722*) (from UniProt P01130 22-722) (domain or fragment)
3 | 7.16 | – | – | – | – | – | wild-type LDLR (N-terminal residues 1-788) (from UniProt P01130 22-788) (domain or fragment)
